Assay results taken from publication PMC5648036.

System: SerRS-Avi-biotin (human cytosolic seryl-tRNA synthetase) (Homo sapiens)
Experiment: SPR

WT tRNASer
Kd: 3.3 nM
